Test results reported in the supplement of paper PMC9170038.

Tested on: K4 kissing-loop RNA reporter
Test: apparent KD of K4 kissing-loop reporter; higher = weaker reporter binding
Conditions: Eterna round: R107
Experimental: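 RNA-MaP round R107: designed RNA switches with theophylline, tryptophan, arginine or FMN aptamers are transcribed on-chip within common flanks. They are titrated with a labelled K4 kissing-loop RNA reporter in RNA-MaP buffer (100 mM Tris pH 7.5, 80 mM KCl, 4 mM MgCl2), without ligand or with the indicated ligand. Median apparent KD per design.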

[1] = input ligand: theophylline 20 uM
[2] = input ligand: tryptophan 2.4 mM
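Also: bound reporter read as fluorescence of individual clusters on recovered sequencing chips by microscopy, with normalized cluster intensities fitted with a binding model.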

Sequence | apparent KD of K4 kissing-loop reporter (input ligand: FMN 200 uM) | apparent KD of K4 kissing-loop reporter (input ligand: arginine 13.2 mM) | apparent KD of K4 kissing-loop reporter (input ligand: none) | apparent KD of K4 kissing-loop reporter [1] | apparent KD of K4 kissing-loop reporter [2]
ACGGCGCUGGAACCAGUAAUGGGAAGAAUGCGAGGACCGGUACGGCCGCCACUCGCUUCCAGUGAUGUUGGAAGUGAGCCAACAA [Geerzaedre] | 272 nM | 275 nM | 304 nM | 277 nM | 181 nM
UAGUCCUAGUGAUCGUUAUCACGUGGUGGGCGAGGACCGGUACGGCCGCCACUCGACUAUGCAGUGAUGUUGCAAUCCGGACAAU [Exclusion - Tryptophan A (Freestyle 15)] | 294 nM | 436 nM | 477 nM | 325 nM | 145 nM
UGUCAUUGGUCUGAUACCAGUUAGACCGAUAGGUCAAAACUGGAGUGAUGUUCCUAAAAUAACCCUUGGCAGCAGACCGAUGACU [TheoBS 2 #SwitchBubble #StaticStem] | 1380 nM | 601 nM | 1010 nM | 856 nM | 954 nM
CUUGGCAUGCGCGAUACCAGCGAACAUAGCAAGCUACGGGUAGUGAUGUUAUCUGAAUAACGCCCUUGGCAGCGCACAUGCCGGC [clock] | 872 nM | 418 nM | 593 nM | 679 nM | 712 nM
UAAGAAUAAGUAGCAGUGAUGUUGCUACUACGAGGACCGGUACGGCCGCCACUCGAGCCGUACCAUAACAUCACUGAGGUACGAA [(H1)-(H2)-(Trp1)-(Trp2)-(T)'-(H)'-(T)''] | 231 nM | 175 nM | 264 nM | 292 nM | 272 nM
GUAUCGCUAGGAGGAUAUUCCAUUUUACAUAGAAAUGGCUAUGCGAAGUGAUGUUUCGAUUUACGGGAAGAAGGCCUAGUGAUAC [FMN B 22] | 160 nM | 148 nM | 148 nM | 177 nM | 155 nM
UAGUGUCGCGCAGGAUAUACUGAUUGGAGUGAUGUUCCAAACAUGCACGUGUGACUUUUACAAGAAGUAGAAGGGCGUGAGACAU [Exclusion FMN B GF 22] | 303 nM | 200 nM | 184 nM | 198 nM | 179 nM
UGUCAUUGGUCGGCCGCCACUACAAGGUCAAAGACCAAAGAGUGAUGUUCUUAGACGAAAGUCAGUAGGACCGGGACCGAUGACU [TrypBS 8 #SwitchBubble #K4Middle] | 1050 nM | 707 nM | 1320 nM | 674 nM | 274 nM
GCCGUACGCAUGGAUACCAGCAAGCAUAGCAGGAAACUGCUAUGCACCAGUGAUGUUGGAUGCCCUUGGCAGCCAUGCGUACGGC | 1250 nM | 754 nM | 926 nM | 439 nM | 1110 nM
AAGACCUGCAUCGAUACCAGCCCAGUGAUGUUGGGCUGCUCUCCAUGGGUGCCAGACACGGGCCCUUGGCAGCGAGGUAGGGCCC [Zazadilabi] | 136 nM | 106 nM | 117 nM | 93.1 nM | 103 nM
AAGCAGUCACUCGAAAUCAUCGAAGAUGAACGAGGACCGGUACGGCCGCCACUCGGAGUGAUGUUCCGAAGACUGCAAAAUAAAA [MatMod 1 - Jieux - Exclusion - Tryptophan A] | 593 nM | 410 nM | 475 nM | 477 nM | 106 nM
AAGUGGGAACGGCCCAAUAAAGUGUUUGUCAAGGAUAUUAUUCACAUAAGAAGGUGACAGACCACCUCCGGAGUGAUGUUUUGGA [theeternabot_sameState_KL_FMN_A_42] | 581 nM | 443 nM | 719 nM | 508 nM | 539 nM
UGUCAUUGGUCGGCCGCCACUUCAUAAAAGAGUGAUGUUCUAAAGACGGAUCGAAAGAUCUGUCGAAGGACCGGGACCGAUGACU [TrypBS 19 #SwitchBubble #StaticStem] | 508 nM | 168 nM | 209 nM | 419 nM | 753 nM
UGCUUUAGAAUACAAGGUAUUUACACUGAUACCAGUCAGUUAAAUGACCCUUGGCAGCAGUGUCAGUGAUGUUGACACAACACAU [Theo A Ex t4] | 183 nM | 173 nM | 180 nM | 157 nM | 164 nM
ACGGGUCGACGAAGGAGCGCCGUGCAGUGAUGUUGCAGUUAGAUCCAGUGAUGUUUGGGCCGGCAGGUAGGUCGCGUCGACUCAU [Exclusion Arginine B GF 21] | 344 nM | 225 nM | 278 nM | 291 nM | 243 nM
GUAUCGCUAGGAGGAUAUUUCAAUUUGACUCUUUGAGUUAAUACGGAGUGAUGUUCCGUUUUACGGAAAGAAGGCCUAGUGAUAC [FMN B 14] | 115 nM | 150 nM | 192 nM | 172 nM | 166 nM
CAGUUCCGUAGUGAUGUUACGAUCUCUGAUACCAGACAACUCUAAGUCCCUUGGCAGCAGUCAUUUUGCUUAAUAUUUACUCAAA [#08 K4 Theophylline A Exclusion] | 126 nM | 139 nM | 136 nM | 170 nM | 116 nM
UGAUACCAGACUGAUACCAGCGAGUGAUGUUUGUUGAUCAUAAGCAGUCAAAGACUGCUUUGCCCUUGGCAGCAGUCUGGUAUCU [#11 K4 Theophylline B Exclusion] | 871 nM | 565 nM | 838 nM | 334 nM | 600 nM
AGGUUUUGAUUAGGAUAUGCACUGAGGAGGAGAAUAUAGUGAUGUUAUAUAAGAGGAAUUAGUAGAGUAGAAGGGAUUGAGGUUU [SSFMNB.T] | 248 nM | 167 nM | 131 nM | 124 nM | 196 nM
GGGUCAGCGCGAAGGAGCGCCCUGACAGGUUGCUGCCGUGGGCAGUGAUGUUGCUCAGUCCGGCAGGUAGGUCGCGUGCUGACCC | 202 nM | 151 nM | 183 nM | 166 nM | 169 nM
AAGUGAUGUUGUAGUGAUGUUGUGAUGUUGCAGGAUAUAUAGUGAUGUAGAAGGGUAAGUACUCAUGUUGUUAGUAAGUGAUGUU [bttutmullin] | 91.5 nM | 43.2 nM | 81.7 nM | 63.7 nM | 74.2 nM
CGUUUAUAGCAGGAUACCAGUACCCAUUAUGUACGUUUAUAGUAGAGUGAUGUUCUAAAGUACCCUUGGCAGCUUCCUGUGUCCC [ExTheophylB.Ab] | 163 nM | 178 nM | 190 nM | 198 nM | 150 nM

Sequence | apparent KD of K4 kissing-loop reporter (input ligand: FMN 200 uM) | apparent KD of K4 kissing-loop reporter (input ligand: arginine 13.2 mM) | apparent KD of K4 kissing-loop reporter (input ligand: none) | apparent KD of K4 kissing-loop reporter [1] | apparent KD of K4 kissing-loop reporter [2]
GGAAAUCUUGCCGAUACCAGAUCGCGCGGCCAUUGCUAGUGAUGUUGGCAAUAAGUACUCAUCCCUUGGCAGCGGUAAGGCAGUG [theeternabot_sameState_KL_Theo_B_23] | 390 nM | 293 nM | 359 nM | 195 nM | 280 nM
AUGACUCAAUAGUGAGUGAUGUUCACUGGACGAGGACCGGUACGGCCGCCACUCGAGAGUGGUGGACACUGUGUCACUGAGUCAU [Tryp A Ex t1] | 180 nM | 166 nM | 154 nM | 194 nM | 496 nM
AGCAGUGAUGUUGCAUUUAAAAUGACCGAUACCAGUAUCGAUAGAUACCCUUGGCAGCGGAUUUCCGCAACGACUAGGAAACUAG [Ex Theophylline A K4 15] | 324 nM | 377 nM | 436 nM | 504 nM | 327 nM
UGACUGGACUGAAGGAGCGCGCGAGACAAAGUCUCGAACUGCUAGUGAUGUUAGCGAAUAACGCAGGUAGGUCGCAGUCUAGUCU [ArgBS 14 #SwitchBubble #StaticStem] | 177 nM | 146 nM | 175 nM | 155 nM | 156 nM
GCAGUCAAUCAACCACGAAAGUGGAUGGAUACCAGCCCGAAACCGGGCCCUUGGCAGCCAGUGAUGUUGGAAGACUGCUUUAAAA [#SwitchBubble 15 #K4Late] | 974 nM | 256 nM | 607 nM | 219 nM | 337 nM
GCCGUAGAUUGAAGGAGCGCCGCGCAUGUCCCGCUUAGUGUAGUGAUGUUACAGUUUCAGCGGCAGGUAGGUCGCAAUCUACGGC | 83.4 nM | 83.3 nM | 81.3 nM | 77.2 nM | 69.5 nM
GGUAGCAUGGCGGCCGCCACUACCUAGUGAUGUUAGGCUGUGGACAUAGGAGCAAAAUAAAUAUGUAGGACCGGGCCAUGCUACC | 127 nM | 101 nM | 121 nM | 126 nM | 123 nM
AGAGUUAUGCGAGGAUAUGCAGUUAGUACUCAAAGAGUACUAACGGCAGAGUGAUGUUCUGUGAAAGCAGAAGGUGCAUAACUCA [Omei KL FMN B SS B v8] | 195 nM | 837 nM | 1370 nM | 857 nM | 923 nM
AUUUAAUGUAUAGAUUAUAUACAUUAUUCAGAGGAUAUGCAUUGAAGCAGAAGGCUGGGUGUAGUGAUGUUGCAGUUUUAAUUUA [whbob_SS_FMNA__2th173] | 150 nM | 254 nM | 152 nM | 224 nM | 122 nM
ACCAUCAAAGAUGGCCAGGACUCCGCUGAUACCAGAGUGGAAACACUCCCUUGGCAGCAGGUGAGUGAUGUUCACAGUCCAUGGA [Omel KL Theo A SS B v4] | 374 nM | 348 nM | 421 nM | 380 nM | 341 nM
UUUUUCGCGUUUGAUACCAGCAGAGUUGUUCUUGUCUGGAACAUGAGUGAUGUUCAUGUCUGCCCUUGGCAGCAAACGGGAGAAG [KL-XTheo-B12] | 122 nM | 111 nM | 110 nM | 114 nM | 116 nM
UCUCCAAAGUCGGCCGCCACUCCGGGCCCUAUAAAUGGGCGCAGUGAUGUUGCGGCUAGGCCUCUGAGGACCGGGACUUUGUAGA [Estiorquin] | 75.5 nM | 55.7 nM | 31.3 nM | 129 nM | 164 nM
GGGUCUGUCGGAAGGAGCGCGCUAUGGAGUGAUGUUCCAUGACCGUACAGCUUACGGUCAGCGCAGGUAGGUCGCCGAUAGCGUU [Geordiar] | 153 nM | 116 nM | 142 nM | 151 nM | 120 nM
GGCGGCUGCGCGGAAGCGCAGCCGGCCGAUACCAGCGCGACGGCGCGCCCUUGGCAGCGGCGCCGAGUGAUGUUCGGCCUGCCGU [#2 Same State - Theophylline A Attempt #21 (HarryS)] | 122 nM | 82.2 nM | 95.3 nM | 124 nM | 117 nM
AAGCAGUCAGGAUCGAAGAUCCUGCAAUACCGAGGACCGGUACGGCCGCCACUCGGAGUGAUGUUCCGAAGACUGCAAAAUAAAA [#SwitchBubble 7] | 436 nM | 255 nM | 243 nM | 57.9 nM | 152 nM
AAUUUAUAUUUAUUCUUUAAAUGUUCAGAAGGAGCGUGAAUUAUCACAGGUAGGUCGCUGAGCUAGUGAUGUUAGCUAUAUACUA [JR_ExcArginiA_Sub007] | 50.3 nM | 95.3 nM | 67.7 nM | 97 nM | 47.5 nM
UUAGUCUAGAGAGGAUAUCAGUGAUGUUGAUAUCAAGAUCUGAGAUAGAAUUCUAUCUCAGAUCAAUGAGAAGGCUCUAGACAUU [AK1.2 Exc FMN B] | 778 nM | 151 nM | 168 nM | 147 nM | 143 nM
GGCAUGGUGACGCGGCGGCCAUGCACUUGGGAGGAUAUGUUUCGUGACAGAAGGCCCAGUGAUGUUGGGUCUGUUCAAAAGGACU [Riteveat] | 491 nM | 170 nM | 192 nM | 174 nM | 141 nM
CUGCCUCACUCGGCCGCCACUGUAUAAAUGUGACAGUGAUGUUGUCGUCGGAAAGGGCACUUAGGCAGGACCGGGAGUUUCAGGC [theeternabot_exclusion_KL_Trp_B_20] | 837 nM | 409 nM | 801 nM | 870 nM | 686 nM
CUUGGAAGGACGGCCGCCACUGGGCAGUGAUGUUGCCCGACCAGGUAACGCAGUGAUGUUGCGACCAGGACCGGGUCCUAGGAAU [Exclusion Tryptophan B GF 24] | 161 nM | 140 nM | 155 nM | 136 nM | 105 nM
CUUGAGACAUGAGUGAUGUUCAUGUCCGAAGGAGCGUGCGAAAGCACAGGUAGGUCGCGGACGUGAGUGAUGUUCAUGUGAGCGA [KL-XArg-A10 #analogue] | 236 nM | 163 nM | 202 nM | 223 nM | 201 nM
